Patent publication US7374891B2, “Methods to identify compounds that modulate rage” (TransTech Pharma, Inc., priority 2000, dated 2008)
Where two headings read alike, the source gives them in different places.

Target: T1, S-100b (Homo sapiens, UniProt P04271)
T1 sequence (P04271 2-92 limits assumed): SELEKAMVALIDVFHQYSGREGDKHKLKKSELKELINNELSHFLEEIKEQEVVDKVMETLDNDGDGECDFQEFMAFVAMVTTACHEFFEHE
Assay: Saturation binding of sRAGE to immobilized S-100b (ELISA, Scatchard analysis)
Description: Generally, the protocol for detection of RAGE modulators is as follows. RAGE ligand (e.g. S-100b, β-amyloid, CML) is diluted to 5 μg/ml in buffer A (fixing buffer) (100 mM Na2CO3/NaHCO3, pH 9.8) and 100 μl added to microtiter plate wells and allowed to incubate overnight at 4° C. to allow the ligand to become fixed to the surface of the wells. Wells are then washed 3 times with 400 μl/well buffer C (wash buffer) (20 mM Imidazole, 150 mM NaCl, pH 7.2), with a 5 second soak in buffer C between each wash. Buffer B (blocking buffer) (50 mM Imidazole pH 7.2, 5% BSA, 5 mM CaCl2, 5 mM MgCl2) is then added to the wells and allowed to incubate for 2 hours at 37° C. to block nonspecific protein binding sites. The blocking buffer is then aspirated from the wells, and the plate washed 3 times (400 μl/well) with buffer C, with a 5 second soak in buffer C between each wash. The compound of interest, 25 μl dissolved in 2% DMSO FAC (Final Assay Concentration ) and sRAGE (75 μl) (2.2×10^−4 mg/ml FAC) are then added to each well, and incubated 1 hour at 37° C. Meanwhile, polyclonal antibody or monoclonal antibody for sRAGE (e.g. 3.0×10^−3 mg/ml and 1.9×10^−4 mg/ml FAC, respectively), biotinylated goat F (ab′)2 anti-mouse IgG (e.g. 8.0×10^−4mg/ml FAC) (Biosource International, Camarillo, Calif. (TAGO)), and alkaline phosphatase labeled streptavidin (3.0×10^−3 mg/ml FAC) (ZYMED, San Francisco, Calif.) are added to 5 ml of buffer D (complex buffer) (50 mM Imidazole, pH 7.2; 0.2% BSA, 5 mM CaCl2, 5 mM MgCl2) in a 15 ml conical tube and allowed to incubate 30 minutes at room temperature.
The solution containing sRAGE and the compound of interest is then aspirated from each well, and after 3 washes with wash buffer, with a 5 second soak between each wash, the anti-sRAGE:IgG:streptavidin-alkaline phosphatase complex is added to each well (100 μl complex per well). After 1 hour at room temperature, the solution in each well is aspirated, and the wells washed 3 times, with 5 second soaks between each wash.
The alkaline phosphatase substrate, para-nitrophenyl phosphate (pNPP) (1 mg/ml in 1 M diethanolamine, pH 9.8), is added and the color allowed to develop for 1 hr in the dark. After the addition of 10 μl stop solution per well (0.5 N NaOH; 50% methanol), the OD405 is measured.
In the experiment shown in FIG. 10, wells were coated by incubation with 500 ng/well S-100b overnight, and after washing, sRAGE diluted in buffer D added to the final concentrations shown. […]
The utility of the assay for detecting compounds which antagonize both low and high affinity RAGE binding domains is shown in FIGS. 8-11. […] The amount of sRAGE bound to the immobilized ligand was detected using anti-sRAGE polyclonal or monoclonal antibody (3.0×10^−3 mg/ml and 1.9×10^−4 mg/ml FAC, respectively) and the development system as described in Example 1. Plots were linearized by means of Scatchard analysis and values for Kd and Bmax determined. Statistical analysis of experimental precision was determined by utilizing GraghPad Prisam version 3 software (GraphPad Software, Inc. San Diego, Calif.).
Both low and high affinity binding of sRAGE to S-100b are detected using the assay method of the invention. […] After washing, sRAGE comprising a final concentration ranging from about 0.3 to 10 nM was added to each well, and after 1 hour at 37° C., bound sRAGE was measured by the addition of polyclonal antibody complex. […]

Kd (S-100b 50 ng/well, sRAGE about 0.3 to 10 nM, FIG. 8, read-out: Kd, high affinity binding component): ~6 nM | Kd (S-100b 100 ng/well, sRAGE about 0.3 to 10 nM, FIG. 9, read-out: Kd, high affinity binding component): ~2 nM | Kd (S-100b 500 ng/well, four separate determinations, FIG. 10, read-out: Kd value): 60 nM | Kd (S-100b 500 and 100 ng/well, sRAGE 24 to 480 nM and 5 to 80 nM, FIGS. 10 and 11, read-out: Kd, low affinity binding site): ~60 nM | Kd (sRAGE 0.3 to 10 nM, FIGS. 8 and 9, read-out: Kd, high affinity binding site): 2 to 6 nM
Substance: sRAGE: soluble, extracellular portion of RAGE, as defined by the amino acid sequence SEQ ID NO: 2
